In data set [1] the target is T1, GST-Pdcd4 wt (human, UniProt Q53EL6 1-469).
T1 sequence: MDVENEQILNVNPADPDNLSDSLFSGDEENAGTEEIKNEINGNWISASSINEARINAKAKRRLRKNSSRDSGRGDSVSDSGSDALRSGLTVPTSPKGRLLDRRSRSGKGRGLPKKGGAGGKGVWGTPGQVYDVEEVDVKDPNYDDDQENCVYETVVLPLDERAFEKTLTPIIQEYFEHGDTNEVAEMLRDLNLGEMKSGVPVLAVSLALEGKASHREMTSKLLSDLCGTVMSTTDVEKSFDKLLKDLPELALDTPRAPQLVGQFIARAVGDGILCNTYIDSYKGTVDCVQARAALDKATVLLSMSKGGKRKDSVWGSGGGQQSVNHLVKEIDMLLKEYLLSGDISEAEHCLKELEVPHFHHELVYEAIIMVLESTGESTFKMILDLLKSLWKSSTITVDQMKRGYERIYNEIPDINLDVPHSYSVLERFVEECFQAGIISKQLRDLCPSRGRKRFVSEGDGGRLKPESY
As to the kind of experiment: EMSA; EMSA: 10 mM Tris-HCl pH 7.8, 100 mM NaCl, 1 mM EDTA, 2% ficoll, 30 min on ice; blot: 10 mM Tris-HCl pH 7.5, 5 mM KCl, 2 mM MgCl2, room temperature; poly(U): 10. The conditions noted are these: protein: recombinant; tags: GST; label: 5' 32P; single strand.

In data set [2] the target is His-PABP-RRM1-4 (mouse, UniProt P29341 1-375). Described as above. The conditions noted are these: protein: recombinant; tags: His; label: 5' 32P; single strand.

These results are taken from PMC4176178, “An evolutionarily conserved interaction of tumor suppressor protein Pdcd4 with the poly(A)-binding protein contributes to translation suppression by Pdcd4”.

Sequence of His-PABP-RRM1-4 (P29341 1-375): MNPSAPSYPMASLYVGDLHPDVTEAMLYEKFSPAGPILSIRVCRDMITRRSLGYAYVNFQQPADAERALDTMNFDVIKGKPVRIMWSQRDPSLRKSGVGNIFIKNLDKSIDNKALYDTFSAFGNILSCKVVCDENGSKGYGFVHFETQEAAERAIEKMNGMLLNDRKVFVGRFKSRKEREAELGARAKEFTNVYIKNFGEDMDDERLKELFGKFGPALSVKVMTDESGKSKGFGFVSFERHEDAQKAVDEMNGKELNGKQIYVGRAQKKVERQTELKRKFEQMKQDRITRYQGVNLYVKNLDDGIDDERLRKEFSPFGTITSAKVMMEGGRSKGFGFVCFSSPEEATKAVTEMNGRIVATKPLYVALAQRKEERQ

On to AAAAAAAAAAAAAAAAAAAAAAAAA (ssRNA) [oligo(A)25], for which the binding result in data set [1] is on record as “no binding”; in data set [2], “binds”.
